Data set [1] concerns the molecule itself. The data set is described as follows: cross-linking; spontaneous Q105C-Q105C disulfide of IRE1^(LD Q105C)-GST in transfected ΔERdj4 CHO cells (alone or with ERdj4 or ERdj4^QPD); glutathione Sepharose; non-reducing SDS-PAGE and immunoblot. On the technique in general: A western blot detects proteins with antibodies after separation by electrophoresis.
Data set [2] deals with T1, IRE1^LD-GST (human, UniProt O75460 19-486).
T1 construct: IRE1α, human, entire luminal and transmembrane domains, residues 19-486; the cytosolic effector domain is replaced by GST; also called IRE1α luminal and transmembrane domain fused to cytosolic GST; source: ΔERdj4 CHO cells, transfected, in lysate; not shown: GST, C-terminal, kept
T1 sequence (looked up): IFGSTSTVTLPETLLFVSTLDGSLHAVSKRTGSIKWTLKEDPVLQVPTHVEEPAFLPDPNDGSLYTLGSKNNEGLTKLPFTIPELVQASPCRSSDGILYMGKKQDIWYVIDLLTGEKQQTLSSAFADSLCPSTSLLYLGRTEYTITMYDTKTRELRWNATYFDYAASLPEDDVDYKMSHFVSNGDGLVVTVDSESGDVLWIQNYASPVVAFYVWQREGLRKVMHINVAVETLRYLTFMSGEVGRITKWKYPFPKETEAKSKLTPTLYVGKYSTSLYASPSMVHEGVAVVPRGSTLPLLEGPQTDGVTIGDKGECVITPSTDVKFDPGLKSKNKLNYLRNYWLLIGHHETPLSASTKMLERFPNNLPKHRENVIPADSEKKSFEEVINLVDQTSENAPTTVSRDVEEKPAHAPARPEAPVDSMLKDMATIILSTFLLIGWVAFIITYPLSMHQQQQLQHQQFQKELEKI
The data set is described as follows: pull-down; GST fusions recovered on glutathione Sepharose 4B from lysates of transfected ΔERdj4 CHO cells (co-transfected with ERdj4, ERdj4^QPD or ERdj6 where indicated); ATP-depleting lysis buffer; endogenous BiP by immunoblot; where indicated beads incubated 5 min with 3 mM ATP. The conditions noted are these: partners not purified.

B1: IRE1^(LD Q105C)-GST (domain or fragment, human, UniProt O75460 19-486, looked up)
chain: IFGSTSTVTLPETLLFVSTLDGSLHAVSKRTGSIKWTLKEDPVLQVPTHVEEPAFLPDPNDGSLYTLGSKNNEGLTKLPFTIPELVCASPCRSSDGILYMGKKQDIWYVIDLLTGEKQQTLSSAFADSLCPSTSLLYLGRTEYTITMYDTKTRELRWNATYFDYAASLPEDDVDYKMSHFVSNGDGLVVTVDSESGDVLWIQNYASPVVAFYVWQREGLRKVMHINVAVETLRYLTFMSGEVGRITKWKYPFPKETEAKSKLTPTLYVGKYSTSLYASPSMVHEGVAVVPRGSTLPLLEGPQTDGVTIGDKGECVITPSTDVKFDPGLKSKNKLNYLRNYWLLIGHHETPLSASTKMLERFPNNLPKHRENVIPADSEKKSFEEVINLVDQTSENAPTTVSRDVEEKPAHAPARPEAPVDSMLKDMATIILSTFLLIGWVAFIITYPLSMHQQQQLQHQQFQKELEKI
modifications: Q105C-Q105C disulfide between two copies in the dimeric species
notes: IRE1α, human, luminal and transmembrane domains as in IRE1^LD-GST (residues 19-486), with Q105C; a modified version of IRE1^LD-GST; source: ΔERdj4 CHO cells, transfected, in lysate; not shown: GST, C-terminal, kept
Turning to B1, in data set [1], the “fold decrease of the disulfide-linked dimeric fraction with co-transfected WT ERdj4” value worked out at 2.5 fold and the stoichiometry N (usually the number of molecules, sites or subunits per partner or assembly) stood at 2.

B2: endogenous BiP (CHO cells) (natural protein)
chain: not shown
notes: BiP, the ER luminal Hsp70, Chinese hamster, endogenous in CHO cells; detected by immunoblot with anti-hamster BiP serum; source: endogenous, CHO cell lysate
Turning to B2, the “fold recovery of BiP with co-transfected WT ERdj4 against ERdj4^QPD” value in data set [2] is 2.5 fold.

(Values after publication PMC5733394, “A J-Protein Co-chaperone Recruits BiP to Monomerize IRE1 and Repress the Unfolded Protein Response” (Cell, 2017).)
